# Experimental data reported in patent US20220204611A1 (Amgen, published 2022).
# T1: human TREM2 (human, UniProt Q9NZC2 19-174, limits assumed)
# T1 sequence: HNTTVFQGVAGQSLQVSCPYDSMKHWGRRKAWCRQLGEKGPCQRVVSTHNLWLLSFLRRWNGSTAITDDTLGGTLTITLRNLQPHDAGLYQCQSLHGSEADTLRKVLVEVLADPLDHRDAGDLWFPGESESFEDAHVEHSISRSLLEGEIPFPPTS
# Legend:
# human TREM2 [1] = biological target: T1, human TREM2; assay: yeast-displayed Fab FACS, 2nd screen 2 nM
# human TREM2 [2] = biological target: T1, human TREM2; assay: yeast-displayed Fab FACS, 1st screen 10 nM
# human TREM2 [3] = biological target: T1, human TREM2; assay: yeast-displayed Fab FACS, 2nd screen 10 nM
# human TREM2 [4] = biological target: T1, human TREM2; assay: yeast-displayed Fab FACS, 1st screen 110 nM
# human TREM2 [5] = biological target: T1, human TREM2; assay: yeast-displayed Fab FACS, 2nd screen 100 nM
binder,measurement,setting,value
"V65 (Fab, V domains shown) VH: EVQLVQSGAEVKKPGESLKISCKGSGYSFTSYWIAWVRQMPGKGLEWMGIIYPGDSDTRYSPSFQGQVTISADKSISTAYLQWSSLKASDTAMYFCARSRTFYYDSSDYFDYWGQGTLVTVSS VL: DIQMTQSPSSVSASVGDRVTITCRASQGISSWLAWYQQKPGKAPKLLIYAASSLQNGVPSRFSGSGSGTDFTLTISSLQPEDFATYFCQQADSFPRTFGQGTKLEIK",binding signal fold over 6E7 parental,human TREM2 [1],1.29 fold
same,binding signal fold over 6E7 parental,human TREM2 [2],2.05 fold
same,binding signal fold over 6E7 parental,human TREM2 [3],2.75 fold
"V1 (Fab, V domains shown) VH: EVQLVQSGAEVKKPGESLKISCKGSGYSFTSSWIAWVRQMPGKGLEWMGIIYPGDSDTRYSPSFQGQVTISADKSISTAYLQWSSLKASDTAMYFCARSRTFYYDSSDYFDYWGQGTLVTVSS VL: DIQMTQSPSSVSASVGDRVTITCRASQGISSWLAWYQQKPGKAPKLLIYAASSLTNGVPSRFSGSGSGTDFTLTISSLQPEDFATYFCQQADSYPRTFGQGTKLEIK",binding signal fold over 6E7 parental,human TREM2 [1],1.29 fold
same,binding signal fold over 6E7 parental,human TREM2 [2],1.68 fold
same,binding signal fold over 6E7 parental,human TREM2 [3],1.92 fold
"V2 (Fab, V domains shown) VH: EVQLVQSGAEVKKPGESLKISCKGSGSSFTSYWIAWVRQMPGKGLEWMGIIYPGDGDTRYSPSFQGQVTISADKSISTAYLQWSSLKASDTAMYFCARSRTFYYDSSDYFDYWGQGTLVTVSS VL: DIQMTQSPSSVSASVGDRVTITCRASQGISSWLAWYQQKPGKAPKLLIYAASSRQNGVPSRFSGSGSGTDFTLTISSLQPEDFATYFCQQADRFPRTFGQGTKLEIK",binding signal fold over 6E7 parental,human TREM2 [1],2.23 fold
same,binding signal fold over 6E7 parental,human TREM2 [2],2.55 fold
same,binding signal fold over 6E7 parental,human TREM2 [3],2.9 fold
"V3 (Fab, V domains shown) VH: EVQLVQSGAEVKKPGESLKISCKGSGYSFASYWIAWVRQMPGKGLEWMGIIYPGDSDTRYSPSFQDQVTISADKSISTAYLQWSSLKASDTAMYFCARGRTFYYDSSDYFDYWGQGTLVTVSS VL: DIQMTQSPSSVSASVGDRVTITCRASQGISSWLAWYQQKPGKAPKLLIYAASSRQNGVPSRFSGSGSGTDFTLTISSLQPEDFATYFCQQADRFPRTFGQGTKLEIK",binding signal fold over 6E7 parental,human TREM2 [1],1.95 fold
same,binding signal fold over 6E7 parental,human TREM2 [2],1.97 fold
same,binding signal fold over 6E7 parental,human TREM2 [3],2.24 fold
"V4 (Fab, V domains shown) VH: EVQLVQSGAEVKKPGESLKISCKGSGYSFGSYWIAWVRQMPGKGLEWMGIIYPGDSDTRVSPSFQGQVTISADKSISTAYLQWSSLKASDTAMYFCARSRTFYYDSSDYFDYWGQGTLVTVSS VL: DIQMTQSPSSVSASVGDRVTITCRASQGISSWLAWYQQKPGKAPKLLIYAASRLQNGVPSRFSGSGSGTDFTLTISSLQPEDFATYFCQQADSYPRTFGQGTKLEIK",binding signal fold over 6E7 parental,human TREM2 [1],5.88 fold
same,binding signal fold over 6E7 parental,human TREM2 [2],6 fold
same,binding signal fold over 6E7 parental,human TREM2 [3],5.51 fold
"V80 (Fab, V domains shown) VH: EVQLVQSGAEVKKPGESLKISCKGSGYSFTSYWIAWVRQMPGKGLEWMGIIYPGDSDTRYSPSFQGQVTISADKSISTAYLQWSSLKASDTAMYFCARQRNFYYDSSDYFDYWGQGTLVTVSS VL: DIQMTQSPSSVSASVGDRVTITCRASQGISSWLAWYQQKPGKAPKLLIYAASSLQNGVPSRFSGSGSGTDFTLTISSLQPEDFATYFCQQADSFPRTFGQGTKLEIK",binding signal fold over 6E7 parental,human TREM2 [4],0.59 fold
same,binding signal fold over 6E7 parental,human TREM2 [5],0.5 fold
"V81 (Fab, V domains shown) VH: EVQLVQSGAEVKKPGESLKISCKGSGYSFTSYWIAWVRQMPGKGLEWMGIIYPGDSDTRYSPSFQGQVTISADKSISTAYLQWSSLKASDTAMYFCARQRTFYYDSSDYFDYWGQGTLVTVSS VL: DIQMTQSPSSVSASVGDRVTITCRASQGISSLLAWYQQKPGKAPKLLIYAASSLQNGVPSRFSGSGSGTDFTLTISSLQPEDFATYFCQQADSFPRTFGQGTKLEIK",binding signal fold over 6E7 parental,human TREM2 [4],0.17 fold
same,binding signal fold over 6E7 parental,human TREM2 [5],0.23 fold
"V82 (Fab, V domains shown) VH: EVQLVQSGAEVKKPGESLKISCKGSGYSFTSYWIAWVRQMPGKGLEWMGIIYPGDSDTRYSPSFQGQVTISADKSISTAYLQWSSLKASDTAMYFCARQRTFYYDSSDYFDYWGQGTLVTVSS VL: DIQMTQSPSSVSASVGDRVTITCRASQGISSWLAWYQQKPGKAPKLLIYAGSSLQNGVPSRFSGSGSGTDFTLTISSLQPEDFATYFCQQADSFPRTFGQGTKLEIK",binding signal fold over 6E7 parental,human TREM2 [4],0.3 fold
same,binding signal fold over 6E7 parental,human TREM2 [5],0.79 fold
"V83 (Fab, V domains shown) VH: EVQLVQSGAEVKKPGESLKISCKGSGYSFTSYWIAWVRQMPGKGLEWMGIIYPGDSDTRYSPSFQGQVTISADKSISTAYLQWSSLKASDTAMYFCARQRTFYYDSSDYFDYWGQGTLVTVSS VL: DIQMTQSPSSVSASVGDRVTITCRASQGISSWLAWYQQKPGKAPKLLIYAASSLQNGVPSRFSGSGSGTDFTLTISSLQPEDFATYFCQQAVSFPRTFGQGTKLEIK",binding signal fold over 6E7 parental,human TREM2 [4],0.2 fold
same,binding signal fold over 6E7 parental,human TREM2 [5],0.29 fold
"V90 (Fab, V domains shown) VH: EVQLVQSGAEVKKPGESLKISCKGSGYSFTSEWIAWVRQMPGKGLEWMGIIYPGDSDTRYSPSFQGQVTISADKSISTAYLQWSSLKASDTAMYFCARQRTFYYDSSDYFDYWGQGTLVTVSS VL: DIQMTQSPSSVSASVGDRVTITCRASQGISRWLAWYQQKPGKAPKLLIYAASSLQNGVPSRFSGSGSGTDFTLTISSLQPEDFATYFCQQADSFPRTFGQGTKLEIK",binding signal fold over 6E7 parental,human TREM2 [4],0.33 fold
same,binding signal fold over 6E7 parental,human TREM2 [5],0.36 fold
"V91 (Fab, V domains shown) VH: EVQLVQSGAEVKKPGESLKISCKGSGYSFTSYWIAWVRQMPGKGLEWMGIIYPDDSDTRYSPSFQGQVTISADKSISTAYLQWSSLKASDTAMYFCARQRTFYYDSSDYFDYWGQGTLVTVSS VL: DIQMTQSPSSVSASVGDRVTITCRASQGISSWLAWYQQKPGKAPKLLIYAASSLQNGVPSRFSGSGSGTDFTLTISSLQPEDFATYFCQQADSFPRTFGQGTKLEIK",binding signal fold over 6E7 parental,human TREM2 [4],0.25 fold
same,binding signal fold over 6E7 parental,human TREM2 [5],0.61 fold
"V92 (Fab, V domains shown) VH: EVQLVQSGAEVKKPGESLKISCKGSGYSFTSYWIAWVRQMPGKGLEWMGIIYPGDSDTRYSPSFQGQVTISADKSISTAYLQWSSLKASDTAMYFCARQRTFHYDSSDYFDYWGQGTLVTVSS VL: DIQMTQSPSSVSASVGDRVTITCRASQGISSWLAWYQQKPGKAPKLLIYAASSLQNGVPSRFSGSGSGTDFTLTISSLQPEDFATYFCQQADSFPRTFGQGTKLEIK",binding signal fold over 6E7 parental,human TREM2 [4],0.22 fold
same,binding signal fold over 6E7 parental,human TREM2 [5],0.65 fold
"V93 (Fab, V domains shown) VH: EVQLVQSGAEVKKPGESLKISCKGSGYSFTSYWIAWVRQMPGKGLEWMGIIYPGDSDTRYSPSFQGQVTISADKSISTAYLQWSSLKASDTAMYFCARQRTFYYDSSDYFDYWGQGTLVTVSS VL: DIQMTQSPSSVSASVGDRVTITCRASQGISGWLAWYQQKPGKAPKLLIYAASSLQNGVPSRFSGSGSGTDFTLTISSLQPEDFATYFCQQADSFPRTFGQGTKLEIK",binding signal fold over 6E7 parental,human TREM2 [4],0.35 fold
same,binding signal fold over 6E7 parental,human TREM2 [5],1.05 fold
"V94 (Fab, V domains shown) VH: EVQLVQSGAEVKKPGESLKISCKGSGYSFTSYWIAWVRQMPGKGLEWMGIIYPGDSDTRYSPSFQGQVTISADKSISTAYLQWSSLKASDTAMYFCARQRTFYYDSSDYFDYWGQGTLVTVSS VL: DIQMTQSPSSVSASVGDRVTITCRASQGISSWLAWYQQKPGKAPKLLIYAAASLQNGVPSRFSGSGSGTDFTLTISSLQPEDFATYFCQQADSFPRTFGQGTKLEIK",binding signal fold over 6E7 parental,human TREM2 [4],0.31 fold
same,binding signal fold over 6E7 parental,human TREM2 [5],0.87 fold
